{"source": "paper PMC4101993", "about": "(Nature structural & molecular biology, 2014)", "proteins": {"B1": {"name": "Purified EttA (gel filtration with static light scattering) (natural protein, E. coli)", "chain": "MAQFVYTMHRVGKVVPPKRHILKNISLSFFPGAKIGVLGLNGAGKSTLLRIMAGIDKDIEGEARPQPDIKIGYLPQEPQLNPEHTVRESIEEAVSEVVNALKRLDEVYALYADPDADFDKLAAEQGRLEEIIQAHDGHNLNVQLERAADALRLPDWDAKIANLSGGERRRVALCRLLLEKPDMLLLDEPTNHLDAESVAWLERFLHDFEGTVVAITHDRYFLDNVAGWILELDRGEGIPWEGNYSSWLEQKDQRLAQEASQEAARRKSIEKELEWVRQGTKGRQSKGKARLARFEELNSTEYQKRNETNELFIPPGPRLGDKVLEVSNLRKSYGDRLLIDDLSFSIPKGAIVGIIGPNGAGKSTLFRMISGQEQPDSGTITLGETVKLASVDQFRDSMDNSKTVWEEVSGGLDIMKIGNTEMPSRAYVGRFNFKGVDQGKRVGELSGGERGRLHLAKLLQVGGNMLLLDEPTNDLDIETLRALENALLEFPGCAMVISHDRWFLDRIATHILDYQDEGKVEFFEGNFTEYEEYKKRTLGADALEPKRIKYKRIAK"}}, "target": "the molecule itself", "assay": "SEC-MALS", "data": [{"protein": "B1", "values": [{"measurement": "stoichiometry N", "result": 2}]}]}
